{"source": "paper PMC9205463", "substrate": "Nc1ncnc2c1ncn2[C@@H]1O[C@H](COP(=O)(O)OP(=O)(O)OP(=O)(O)O)[C@@H](O)[C@H]1O", "test": "purified protein", "conditions": "M13 ssDNA effector; ATP 0-4 mM", "data": [{"protein": "DDX41 (Homo sapiens) (protein) MEESEPERKRARTDEVPAGGSRSEAEDEDDEDYVPYVPLRQRRQLLLQKLLQRRRKGAAEEEQQDSGSEPRGDEDDIPLGPQSNVSLLDQHQHLKEKAEARKESAKEKQLKEEEKILESVAEGRALMSVKEMAKGITYDDPIKTSWTPPRYVLSMSEERHERVRKKYHILVEGDGIPPPIKSFKEMKFPAAILRGLKKKGIHHPTPIQIQGIPTILSGRDMIGIAFTGSGKTLVFTLPVIMFCLEQEKRLPFSKREGPYGLIICPSRELARQTHGILEYYCRLLQEDSSPLLRCALCIGGMSVKEQMETIRHGVHMMVATPGRLMDLLQKKMVSLDICRYLALDEADRMIDMGFEGDIRTIFSYFKGQRQTLLFSATMPKKIQNFAKSALVKPVTINVGRAGAASLDVIQEVEYVKEEAKMVYLLECLQKTPPPVLIFAEKKADVDAIHEYLLLKGVEAVAIHGGKDQEERTKAIEAFREGKKDVLVATDVASKGLDFPAIQHVINYDMPEEIENYVHRIGRTGRSGNTGIATTFINKACDESVLMDLKALLLEAKQKVPPVLQVLHCGDESMLDIGGERGCAFCGGLGHRITDCPKLEAMQTKQVSNIGRKDYLAHSSMDF", "values": [{"measurement": "Km", "value": 200, "unit": "µM"}, {"measurement": "kcat", "value": "953.6 ± 45.5", "unit": "s⁻¹"}]}]}
